# Patent publication US7470669B2, “Isolated polypeptide comprising a leptin fragment” (Serono Genetics Institute, S.A., priority 1999, dated 2008)
# Columns and labels:
# [1] = target: T1, LSR α (Homo sapiens, UniProt Q86X29); test: 125I-leptin binding in CHO-K1 cells transiently transfected with LSR α; type: cell-based; conditions: transient transfection with LSR α plasmid; 10 ng/mL 125I-leptin
# T1 construct: The full-length LSR α, α′, and β clones were reconstructed in pTracer-CMV2 vector; expressed in transfected cells; host or cells: CHO-K1, transient (Fugene), pTracer-CMV2
# T1 sequence (Q86X29 1-649): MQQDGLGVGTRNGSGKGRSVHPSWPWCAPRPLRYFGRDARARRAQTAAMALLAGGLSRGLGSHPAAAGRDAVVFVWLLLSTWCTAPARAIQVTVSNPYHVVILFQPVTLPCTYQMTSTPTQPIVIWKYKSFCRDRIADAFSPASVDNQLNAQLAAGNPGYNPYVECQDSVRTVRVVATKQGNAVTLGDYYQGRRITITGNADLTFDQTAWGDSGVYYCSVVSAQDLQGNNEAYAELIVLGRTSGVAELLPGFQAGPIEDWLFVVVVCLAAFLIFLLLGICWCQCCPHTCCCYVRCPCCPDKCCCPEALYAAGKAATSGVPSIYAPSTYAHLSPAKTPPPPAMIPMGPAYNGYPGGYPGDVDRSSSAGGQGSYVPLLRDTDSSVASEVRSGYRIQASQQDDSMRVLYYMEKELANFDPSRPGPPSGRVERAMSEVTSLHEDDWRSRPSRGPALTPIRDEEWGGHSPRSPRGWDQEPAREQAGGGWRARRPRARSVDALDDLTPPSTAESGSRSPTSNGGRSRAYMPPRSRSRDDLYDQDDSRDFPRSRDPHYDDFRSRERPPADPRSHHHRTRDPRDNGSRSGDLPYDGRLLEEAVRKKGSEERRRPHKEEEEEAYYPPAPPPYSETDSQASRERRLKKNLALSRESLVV
# Experimental: FIGS. 3A, 3B, 3C, and 3D show the effect of LSR subunit transfection on leptin binding and degradation in CHO-K1 cells. For FIG. 3A, CHO-K1 cells were transfected with increasing concentrations of the α, (□), α′ (▪) or β (◯) LSR plasmid, or vector alone (●) using Fugene transfection reagent. After 48 h, the cells were washed once in PBS and incubated at 37° C. for 2 h with 10 ng/mL of ^125I-leptin in DMEM containing 0.2% (w/v) BSA, 2 mM CaCl2 and 5 mM HEPES, pH 7.4 (Buffer A). The monolayers were washed and lysed with 0.1 N NaOH containing 0.24 mM EDTA, and the lysates were counted. The results are shown as the amount of cell-associated ^125I-leptin. For FIG. 3B, lysates were prepared from CHO-K1 wild type, stable transfectants of vector or LSR α′ subunit, and PLC, and separated on a 10% SDS-polyacrylamide gel under denaturing and reduced conditions. After transfer to nitrocellulose, Western blots were performed using anti-LSR 170 antibody (can also be done with the human equivalent, 93A). […] For FIGS. 3C and 3D, confluent monolayers of stable-transfected cell lines expressing LSR α′ subunit (▪) or vector alone (●) were washed once in PBS and incubated at 37° C. for 2 h with increasing concentrations of ^125I-leptin in Buffer A. The amount of cell-associated (FIG. 3C) and degraded (FIG. 3D) ^125I-leptin was then measured as described herein. […]
# [2] = test system: lipase; test: Postheparin lipolytic activity in db^Pas/db^Pas mice; type: in vivo, mouse; conditions: 50 μg/animal, t=2 h after test meal
# Experimental: FIG. 12 contains a Table that presents results showing the effect of test meal with and without leptin injection on postheparin lipolytic activity in db^Pas/db^Pas mice. Animals were gavaged with the test-meal and injected at the same time with 50 μg leptin or physiological saline as described previously (t=0 h). After 1 h, the mice were injected with heparin and blood samples were taken at the peak of postprandial triglyceridemia (t=2 h). Lipase activity was measured in the postheparin plasma as described in the Examples section herein, and is reported here as the mean±SEM (n=3 animals for each condition; ns=not significant).
# Mice were gavage-fed and injected with leptin or control solutions as described above. At t=1 h, the mice were injected subcutaneously with heparin (100 IU/kg body weight). At t=2 h, the animals were bled and the plasma was immediately separated by centrifugation. Lipase activity was determined according to Iverius and Brunzell (1985) using 20% Lipoven (Fresenius France Pharma, Louviers, France) as the source of TG. The assay was performed using 25 μL postheparin plasma in 0.15 M NaCl (200 μL total volume), and in the presence of 10 μL heat-inactivated (56° C., 30 min) human plasma as a source of apoC's. Before and at the end of the incubation, FFA concentrations were determined using an enzymatic kit.
substance,measurement,setting,value
"leptin: plasma protein of 16 kDa produced by adipocytes; recombinant human or mouse leptin, species depends on the experiment",Leptin binding to CHO-K1 cells,[1],remained at levels similar to those seen with the vector alone
same,lipase activity released in serum after heparin injections,[2],did not significantly modify lipase activity
